Laboratory results reported in patent publication US8461305B2, “L-fucose α1→6 specific lectin” (J-Oil Mills, Inc., priority 2008, dated 2013).

Experiments:
[1] = frontal affinity chromatography (FAC), association constant to PA sugar chains having α1→6 L-fucose; type: binding; details: 25 degrees C.
Protocol: The following section will describe a method of calculating an association constant by frontal affinity chromatography (FAC). This method is based on the following principle. […] Then, the elution front end (front) is observed immediately. When there is an affinity with lectin, the elution of the sugar chain is delayed.
The preparation of a lectin column used in the apparatus is performed in the method as described below. 1. Purified lectin is dissolved in 0.1 to 0.2M of NaHCO3 buffer solution (pH 8.3 to 8.5). 2. The lectin is immobilized, via a lectin primary amino group, a carrier such as NHS activated sepharose. 3. Then, the lectin is blocked by Tris buffer solution including primary amine or ethanolamine for example. 4. Lectin-sepharose is suspended in 10 mM Tris buffer, including 0.8% of NaCl (pH 7.4, TBS). Then, lectin immobilized resin is filled in a miniature column (φ2 mm×10 mm, 31.4 μl). 5. The miniature column in which the lectin immobilized resin is filled is protected by a holder and the lectin column is connected to an FAC automatic analysis apparatus (FAC-1, SHIMADZU CORPORATION).
Then, the elution of the PA sugar chain from the column is detected by a fluorescence detector (excitation wavelength/fluorescence wavelength: 310 nm/380 nm).
Based on the detection data, by using the elution front end (Vo) of the sugar chain (PA rhamnose) not interacting with lectin as a reference, the delay (V−Vo) of the elution front end (V) of a sugar chain interacting with lectin is calculated as an interaction strength. Then, based on the following FAC criteria expressions, the association constant (Ka) between the sugar chain and lectin is calculated based on V−Vo and Bt. If the interaction strength (V−Vo value) and the association constant are higher, a higher affinity is caused between lectin and an L-fucose α1→6 sugar chain.
[In the formula, A means substance used for the elution, Ao means the initial concentration of the substance A, B means a immobilized ligand, V means the elution volume, Vo means the elution front end volume of the substance not interacting with the immobilized ligand B at all, Bt means an effective ligand amount, Kd means a dissociation constant (an inverse of the association constant)].
Pyridylaminated (PA) sugar chains shown in FIG. 1 and FIG. 2 were used to frontal affinity chromatography (FAC) analysis. PA sugars were purchased from TAKARA BIO INC., SEIKAGAKU BIOBUSINESS CORPORATION, and Masuda Chemical Industries co., LTD. PA sugar were also obtained by pyridylaminating, by GlycoTAG®(TAKARA BIO INC.), an unlabeled sugar chain or a sugar chain obtained by subjecting a sugar chain to enzyme digestion for example.
Lectin was dissolved in 0.2 M NaHCO3 buffer solution (pH 8.3) including 0.5 M NaCl and coupled to the NHS-activated sepharose (GE Healthcare Bioscience) by following the manufacturer's instructions. Then, lectin immobilized sepharose was suspended in 10 mM Tris buffer (pH 7.4, TBS) including […] and the resultant matter was filled in a miniature column (φ2 mm×10 mm, 31.4 μl).
Frontal affinity chromatography was performed using FAC automatic analysis apparatus (FAC-1, SHIMADZU CORPORATION). In particular, the above-prepared lectin column was inserted to a stainless steel holder and the holder was connected to FAC-1 apparatus. The flow rate and the column temperature were maintained at 0.125 ml/min and 25 degrees C., respectively. After the miniature column was equilibrated by the TBS, an excessive volume (0.5 ml to 4 ml) of a PA sugar chain (3.75 nM or 7.5 nM) was continuously inputted to the column using an automatic sampling apparatus.
The fluorescent strength of the eluate of the PA sugar (excitation wavelength of 310 nm and fluorescence wavelength of 380 nm) was monitored to measure the interaction strength [a difference of the front end eluate to the standard oligosaccharide (PA rhamnose): V−V0]. […]

glycoproteins = assay: hemagglutinating inhibition test with glycoproteins (sugar binding specificity); type: cell-based
Description: The sugar binding specificity of lectin also can be confirmed by using erythrocytes that can be specifically agglutinated by the lectin to investigate the sugar type that may inhibit the agglutination of the erythrocytes and the concentration thereof.
Various monosaccharides, oligosaccharides, and polysaccharides shown in Table 2 and glycoproteins shown in Table 3 were subjected to hemagglutinating inhibition test to evaluate PTL of Example 1 and the SRL of Example 2 with regard to the sugar binding specificity.
On a 96 well U-bottom microtiter plate, double dilution series of 10 μl of monosaccharide, oligosaccharide, polysaccharide, and glycoprotein solutions were prepared. Then, lectin solution adjusted in advance to have titer 4 was added in an amount of 10 μl to the respective wells. Then, the plate was subjected to a still-standing at a room temperature for one hour for sensitization. Then, 10 μl of 4%-red blood cell suspension was added to the respective wells and the plate was further subjected to a still-standing at a room temperature for one hour. […] The lowest concentration showing the inhibition was assumed as the minimum inhibition concentration. The lower the minimum inhibition concentration is, the higher the specificity to lectin is.
For comparison, the sugar binding specificity was evaluated using the following commercially-available lectins: Comparison Example 1: AAL (SEIKAGAKU BIOBUSINESS CORPORATION—J-OIL MILLS, Inc.), Comparison Example 2: AOL (TOKYO CHEMICAL INDUSTRY CO., LTD.—Gekkeikan Sake Company, Ltd.), Comparison Example 3: LCA (SEIKAGAKU BIOBUSINESS CORPORATION—J-OIL MILLS, Inc.), and Comparison Example 4: PSA (SEIKAGAKU BIOBUSINESS CORPORATION—J-OIL MILLS, Inc.).

minimum inhibition concentration of hemagglutination (glycoproteins; inhibitor: Asialofetuin): >250 μl/ml
minimum inhibition concentration of hemagglutination (glycoproteins; inhibitor: Asialomucin (pig)): >250 μl/ml
minimum inhibition concentration of hemagglutination (glycoproteins; inhibitor: Bovine blood serum albumin): >250 μl/ml
minimum inhibition concentration of hemagglutination (glycoproteins; inhibitor: Casein): >250 μl/ml
minimum inhibition concentration of hemagglutination (glycoproteins; inhibitor: Fetuin): >250 μl/ml
minimum inhibition concentration of hemagglutination (glycoproteins; inhibitor: Human immune globulin A): >250 μl/ml
minimum inhibition concentration of hemagglutination (glycoproteins; inhibitor: Human immune globulin G): >250 μl/ml
minimum inhibition concentration of hemagglutination (glycoproteins; inhibitor: Lactoferrin): >250 μl/ml
minimum inhibition concentration of hemagglutination (glycoproteins; inhibitor: Mucin (bovine)): >250 μl/ml
minimum inhibition concentration of hemagglutination (glycoproteins; inhibitor: Mucin (pig)): >250 μl/ml
minimum inhibition concentration of hemagglutination (glycoproteins; inhibitor: Ribonuclease): >250 μl/ml
minimum inhibition concentration of hemagglutination (glycoproteins; inhibitor: Thyroglobulin): 62.5 μl/ml
minimum inhibition concentration of hemagglutination (glycoproteins; inhibitor: Transferrin): >250 μl/ml
minimum inhibition concentration of hemagglutination (glycoproteins; inhibitor: α1-acidic glycoprotein): >250 μl/ml
B1: Pisum sativum agglutinin (protein)
chain: TETTSFLITKFSPDQQNLIFQGDGYTTKEKLTLTKAVKNTVGRALYSSPIHIWDRETGNVANFVTSFTFVINAPNSYNVADGFTFFIAPVDTKPQTGGGYLGVFNSAEYDKTTQTVAVEFDTFYNAAWDPSNRDRHIGIDVNSIKSVNTKSWKLQNGEEANVVIAFNAATNVLTVSLTYPNSLEEENVTSYTLSDVVSLKDVVPEWVRIGFSATTGAEYAAHEVLSWSFHSELSGTSSSKQAADA
association constant Ka ([1]; Sugar chain No. 015): 120000 M⁻¹
association constant Ka ([1]; Sugar chain No. 201): 100000 M⁻¹
association constant Ka ([1]; Sugar chain No. 202): 44000 M⁻¹
association constant Ka ([1]; Sugar chain No. 203): 25000 M⁻¹
association constant Ka ([1]; Sugar chain No. 401): 92000 M⁻¹
association constant Ka ([1]; Sugar chain No. 402): 48000 M⁻¹
association constant Ka ([1]; Sugar chain No. 403): 38000 M⁻¹
association constant Ka ([1]; Sugar chain No. 404): 45000 M⁻¹
association constant Ka ([1]; Sugar chain No. 405): 36000 M⁻¹
association constant Ka ([1]; Sugar chain No. 406): 13000 M⁻¹
association constant Ka ([1]; Sugar chain No. 407): <1000 M⁻¹
association constant Ka ([1]; Sugar chain No. 410): <1000 M⁻¹
association constant Ka ([1]; Sugar chain No. 413): <1000 M⁻¹
association constant Ka ([1]; Sugar chain No. 418): <1000 M⁻¹
association constant Ka ([1]; Sugar chain No. 601): 31000 M⁻¹
association constant Ka ([1]; Sugar chain No. 602): 29000 M⁻¹
